In patent US6812377B2, “Genetic engineering of syringyl-enriched lignin in plants” (Board of Control of Michigan Technological University, priority 2000, dated 2004):

Experiments:
[1] = biological target: T1, recombinant PtCAD protein (Populus tremuloides, UniProt Q9M632); experiment: Kinetic properties of the recombinant PtCAD protein (HPLC-UV/MS); type: biochemical; conditions: substrate of PtCAD; relative, coniferaldehyde = 100
Experimental: (§1) To characterize the enzyme pH optima, the substrate and recombinant PtCAD or PtSAD protein concentrations described above were used in sodium phosphate buffers, pH 5 to 8.5. […] For inhibition kinetics, the PtCAD-mediated reduction of sinapaldehyde (1 to 200 μM) was assayed in the presence of 1 to 5 μM coniferaldehyde, and the PtSAD-catalyzed reduction of coniferaldehyde (1 to 200 μM) was assayed in the presence of 1 to 5 μM sinapaldehyde. All reactions were terminated by the addition of 10 μL of 6 N HCI (to bring the pH to 2) and 500 ng of internal standard o-coumaric acid and analyzed by HPLC-UV/MS. An aliquot of 100 μL of reaction mixture was injected directly onto a Supelcosil LC-ABZ column (15 cm×4.6 mm×5 μm; Supelco, Bellefonte, Pa.) with automatic sample injection and separated isocratically with a Hewlett-Packard (HP) 1100 liquid chromatography system at 40° C. and a flow rate of 0.25 mL/min. […] The reaction products were identified and confirmed by comparing the ion fragmentation patterns of the product and the authentic standard in MS scanning mode at 70 V. The product quantity and Km, Vmax, kcat, and apparent inhibition constant (Ki) values (means±SE) were determined as described (Osakabe et al., 1999; Li et al., 2000). The results of the inhibition kinetics for both the CAD enzyme (i.e. Table 2) and the SAD enzyme (i.e., Table 3) using a variety of substrates are illustrated below.

[2] = biological target: recombinant PtSAD protein (Populus tremuloides, UniProt Q94G59); experiment: Kinetic properties of the recombinant PtSAD protein (HPLC-UV/MS); type: biochemical; conditions: substrate of PtSAD; relative, sinapaldehyde = 100
Experimental: as §1

[3] = tested on: PtSAD recombinant protein; experiment: SAD enzyme activity assay, single and mixed substrates (HPLC-MS); type: biochemical, Populus tremuloides
Experimental: After 10 min at 30° C., the reaction was terminated and extracted with 0.5 ml ethyl acetate. The extraction was repeated 4 times and the combined ethyl acetate was evaporated and dissolved in the HPLC mobile phase for LC-MS identification and quantitation of the reaction products as we did before (Osakabe et al., 1999; Li et al. 2000). […] The SAD reactions with mixed substrates, sinapaldehyde and coniferyl aldehyde, were therefore conducted at the optimal pH 7.0 under above-described conditions. […] To characterize the enzyme pH optima, the substrate and recombinant PtCAD or PtSAD protein concentrations described above were used in sodium phosphate buffers, pH 5 to 8.5. All reactions were for 10 minutes at 30° C. An aliquot of 100 μL of reaction mixture was injected directly onto a Supelcosil LC-ABZ column (15 cm×4.6 mm×5 μm; Supelco, Bellefonte, Pa.) with automatic sample injection and separated isocratically with a Hewlett-Packard (HP) 1100 liquid chromatography system at 40° C. and a flow rate of 0.25 mL/min. […] The reaction products were identified and confirmed by comparing the ion fragmentation patterns of the product and the authentic standard in MS scanning mode at 70 V. The product quantity and Km, Vmax, kcat, and apparent inhibition constant (Ki) values (means±SE) were determined as described (Osakabe et al., 1999; Li et al., 2000). The results of the inhibition kinetics for both the CAD enzyme (i.e. Table 2) and the SAD enzyme (i.e., Table 3) using a variety of substrates are illustrated below.

[4] = biological target: T1, recombinant PtCAD protein; experiment: PtCAD enzyme activity with a mixture of coniferaldehyde and sinapaldehyde (HPLC-MS); type: biochemical
Description: A guaiacyl pathway gene encoding coniferyl alcohol dehydrogenase (CAD, FIG. 1) from Populus tremuloides (GenBank #AF217957) was first cloned. This cDNA was designated as PtCAD (GenBank #AF217957). E. coli-expressed recombinant PtCAD protein was characterized for its catalytic activity with coniferaldehyde and sinapaldehyde. Because monolignol biosynthetic pathway intermediates are present together in lignifying tissues (Osakabe et al., 1999; Li et al. 2000), the PtCAD enzyme activity with a mixture of coniferaldehyde and sinapaldehyde was assayed. As shown in FIG. 5 (a) and (c), the reaction mixture was separated by HPLC after the enzyme reaction. […]
An aliquot of 100 μL of reaction mixture was injected directly onto a Supelcosil LC-ABZ column (15 cm×4.6 mm×5 μm; Supelco, Bellefonte, Pa.) with automatic sample injection and separated isocratically with a Hewlett-Packard (HP) 1100 liquid chromatography system at 40° C. and a flow rate of 0.25 mL/min. […] The reaction products were identified and confirmed by comparing the ion fragmentation patterns of the product and the authentic standard in MS scanning mode at 70 V. The product quantity and Km, Vmax, kcat, and apparent inhibition constant (Ki) values (means±SE) were determined as described (Osakabe et al., 1999; Li et al., 2000). […]

[5] = substrate: COc1cc(/C=C/C=O)cc(O)c1O; experiment: Kinetic properties of the recombinant PtCAD protein (HPLC-UV/MS); type: biochemical, Populus tremuloides; conditions: other: substrate of PtCAD, pH 8.0, 4 min, 30° C., NADPH, means of three independent assays
Experimental: as §1

[6] = substrate: COc1cc(/C=C/C=O)cc(OC)c1O; experiment: as above; type: biochemical, Populus tremuloides; conditions: other: substrate of PtCAD, pH 8.0, 4 min, 30° C., NADPH, means of three independent assays
Experimental: as §1

[7] = substrate: COc1cc(/C=C/C=O)ccc1O; experiment: as above; type: biochemical, Populus tremuloides; conditions: other: substrate of PtCAD, pH 8.0, 4 min, 30° C., NADPH, means of three independent assays
Experimental: as §1

[8] = substrate: O=C/C=C/c1ccc(O)c(O)c1; experiment: as above; type: biochemical, Populus tremuloides; conditions: other: substrate of PtCAD, pH 8.0, 4 min, 30° C., NADPH, means of three independent assays
Experimental: as §1

[9] = substrate: O=C/C=C/c1ccc(O)cc1; experiment: as above; type: biochemical, Populus tremuloides; conditions: other: substrate of PtCAD, pH 8.0, 4 min, 30° C., NADPH, means of three independent assays
Experimental: as §1

[10] = substrate: COc1cc(/C=C/C=O)cc(O)c1O; experiment: Kinetic properties of the recombinant PtSAD protein (HPLC-UV/MS); type: biochemical, Populus tremuloides; conditions: other: substrate of PtSAD, pH 7.0, 4 min, 30° C., NADPH, means of three independent assays
[11] = substrate: COc1cc(/C=C/C=O)cc(OC)c1O; experiment: as above; type: biochemical, Populus tremuloides; conditions: other: substrate of PtSAD, pH 7.0, 4 min, 30° C., NADPH, means of three independent assays
[12] = substrate: COc1cc(/C=C/C=O)ccc1O; experiment: as above; type: biochemical, Populus tremuloides; conditions: other: substrate of PtSAD, pH 7.0, 4 min, 30° C., NADPH, means of three independent assays
[13] = substrate: O=C/C=C/c1ccc(O)c(O)c1; experiment: as above; type: biochemical, Populus tremuloides; conditions: other: substrate of PtSAD, pH 7.0, 4 min, 30° C., NADPH, means of three independent assays
[14] = substrate: O=C/C=C/c1ccc(O)cc1; experiment: as above; type: biochemical, Populus tremuloides; conditions: other: substrate of PtSAD, pH 7.0, 4 min, 30° C., NADPH, means of three independent assays

O=C/C=C/c1ccc(O)c(O)c1 [Caffealdehyde] showed a Vmax/Km [1] of 4.4% and a Vmax/Km [2] of 2.2%.

For COc1cc(/C=C/C=O)cc(O)c1O [5-Hydroxyconiferaldehyde], the Vmax/Km [1] was 10.6% and the Vmax/Km [2] was 15.5%.

Molecule O=C/C=C/c1ccc(O)cc1 [p-Coumaraldehyde] has a Vmax/Km [1] of 30.1% and a Vmax/Km [2] of 27.4%.

COc1cc(/C=C/C=O)cc(OC)c1O [Sinapaldehyde] was tested, and the Vmax/Km [1] was 12.0%, the Vmax/Km [2] was 100% and the “reaction of PtSAD with the substrate in a mixture” value ([3]; mixture of coniferaldehyde and sinapaldehyde, pH 7.0) was “sinapyl alcohol is the exclusive product”. For the same molecule, the “catalytic efficiency of PtSAD with sinapaldehyde versus coniferaldehyde” value ([3]; ratio of specific activities) was 9 times and the “reaction of PtCAD with the substrate in a mixture” value [4] was “no reaction”.

B1: recombinant PtCAD protein (Populus tremuloides) (protein)
chain: MGSLETERKIVGWAATDSTGHLAPYTYSLRDTGPEDVLIKVISCGICHTDIHQIKNDLGMSHYPMVPGHEVVGEVVEVGSDVTKFKAGDVVGVGVIVGSCKNCHPCKSELEQYCNKKIWSYNDVYTDGKPTQGGFAESMVVDQKFVVRIPDGMSPEQAAPLLCAGLTVYSPLKHFGLKQSGLRGGILGLGGVGHMGVKIAKAMGHHVTVISSSDKKREEAMEHLGADEYLVSSDVESMQKAADQLDYIIDTVPVVHPLEPYLSLLKLDGKLILMGVINTPLQFVSPMVMLGRKSITGSFIGSMKETEEMLEFCKEKGLASMIEVIKMDYINTAFERLEKNDVRYRFVVDVAGSKLIP
B1 showed a Km [5] of 17.5 µM, a Vmax [5] of 0.17 µmol/min/mg and a kcat [5] of 0.113 s⁻¹. For the same molecule, the Km [6] was 9.1 µM, the Vmax [6] was 0.1 µmol/min/mg and the kcat [6] was 0.0667 s⁻¹. For the same molecule, the Km [7] was 2.3 µM, the Vmax [7] was 0.21 µmol/min/mg and the kcat [7] was 0.14 s⁻¹. It also gave a Km [8] of 37.0 µM, a Vmax [8] of 0.15 µmol/min/mg and a kcat [8] of 0.1 s⁻¹. The Km [9] was 6.2 µM, the Vmax [9] was 0.17 µmol/min/mg and the kcat [9] was 0.113 s⁻¹.

B2: recombinant PtSAD protein (Populus tremuloides) (protein)
chain: MSKSPEEEHPVKAFGWAARDQSGHLSPFNFSRRATGEEDVRFKVLYCGICHSDLHSIKNDWGFSMYPLVPGHEIVGEVTEVGSKVKKVNVGDKVGVGCLVGACHSCESCANDLENYCPKMILTYASIYHDGTITYGGYSDHMVANERYIIRFPDNMPLDGGAPLLCAGITVYSPLKYFGLDEPGKHIGIVGLGGLGHVAVKFAKAFGSKVTVISTSPSKKEEALKNFGADSFLVSRDQEQMQAAAGTLDGIIDTVSAVHPLLPLFGLLKSHGKLILVGAPEKPLELPAFSLIAGRKIVAGSGIGGMKETQEMIDFAAKHNITADIEVISTDYLNTAIERLAKNDVRYRFVIDVGNTLAATKP
B2 gave a Km [10] of 36.1 µM, a Vmax [10] of 3.8 µmol/min/mg and a kcat [10] of 2.53 s⁻¹. For the same molecule, the Km [11] was 7.4 µM, the Vmax [11] was 5 µmol/min/mg and the kcat [11] was 3.33 s⁻¹. The Km [12] was 12.7 µM, the Vmax [12] was 2.3 µmol/min/mg and the kcat [12] was 1.53 s⁻¹. For the same molecule, the Km [13] was 140.0 µM, the Vmax [13] was 2 µmol/min/mg and the kcat [13] was 1.33 s⁻¹. It also gave a Km [14] of 15.6 µM, a Vmax [14] of 2.9 µmol/min/mg and a kcat [14] of 1.93 s⁻¹.
